Assay results reported in patent US5726286.
Read-outs that look alike come from different tables or passages of the source.

Legend:
[1] = target: human MHC class II β chain (human)
[2] = target: human MHC class II β chain (human); remark: listed apart in the source

BZLF2/Fc fusion protein
Plaques/10^6 PBMC (anti-SRBC antibody formation, hemolytic plaque assay) (Plaques/10^6 PBMC) [1]: 0

Tie/Fc (Fc fusion)
Plaques/10^6 PBMC (anti-SRBC antibody formation, hemolytic plaque assay) (Plaques/10^6 PBMC) [2]: 606

IL-4 receptor/Fc fusion protein
Plaques/10^6 PBMC (anti-SRBC antibody formation, hemolytic plaque assay) (Plaques/10^6 PBMC) [1]: 788
